B1: P1142_AMBCA (natural protein)
chain: KPQILQRTDHSTDSDWDPQMCPETCNPSKNISCSSECLCVTLGGGDETGTCFNMSGVDWLGHAQASDGHNDG
notes: evasin P1142, mature peptide, 72 residues; N-terminal DGG expected after signal peptide cleavage; glycosylated
B2: P1078_IXORI (natural protein)
chain: GSKGSSAQQSSHDSIKAEFCETNCTMKTGGKWTQCHGGCFCVHVGNETVGRCIKLDGDYDYPSSKHEE
notes: evasin P1078, mature peptide, 68 residues; N-terminal DGG expected after signal peptide cleavage; glycosylated
B3: CXCL13 (ligand, human, UniProt O43927 23-109, looked up)
chain: VLEVYYTSLRCRCVQESSVFIPRRFIDRIQILPRGNGCPRKEIIVWKKNKSIVCVDPQAEWIQRMMEVLRKRSSSTLPVPVFKRKIP
notes: human CXCL13
B4: P1086_IXORI (natural protein)
chain: GSKGQRASQVSETSITAEFCDTSCTQGTDKTWSGCSGDCFCVHVGNDTEGRCMRWDGDYPSAEEEE
notes: evasin P1086, mature peptide, 66 residues; N-terminal DGG expected after signal peptide cleavage; glycosylated
B5: P942_IXORI (natural protein)
chain: NQLSGPQSSANSNEAVFCDTNCTQGTDEAWSGCRGDCFCVYVGNSTEGRCMMLSGDFDYSTPGAED
notes: evasin P942, mature peptide, 66 residues; N-terminal DGG expected after signal peptide cleavage; glycosylated
B6: P1126_AMBCA (natural protein)
chain: KPQILQRTDKSTDSEWDPQTCPETCIPSKNITCSDGCVCVKLGEEEEGTCFNMTGVDWLGSPSDD
notes: evasin P1126, mature peptide, 65 residues; N-terminal DGG expected after signal peptide cleavage; glycosylated
B7: P1100_IXORI (natural protein)
chain: GSKGSSASQSSDNSVVAKFCDTNCTINEGGKWTECKGGCFCVHVGNETVGRCMKLDGDYDYPSPKPEE
notes: evasin P1100, mature peptide, 68 residues; N-terminal DGG expected after signal peptide cleavage; glycosylated
B8: Evasin 3 (EVA3) (natural protein)
chain: DGGLVSTIESRTSGDGADNFDVVSCNKNCTSGQNECPEGCFCGLLGQNKKGHCYKIIGNLSGEPPVVRR
modifications: also: glycosylated
notes: residues expected at the N terminus after cleavage of the Igκ signal peptide (SignalP 3.0); Evasin-3 (EVA3_RHISA), Rhipicephalus sanguineus, mature peptide; class I founder; also called EVA3_RHISA; WT EVA3; source: HEK293F, transiently transfected, secreted; purified (nickel IMAC, SEC)
B9: EVA3_RHISA (natural protein)
chain: LVSTIESRTSGDGADNFDVVSCNKNCTSGQNECPEGCFCGLLGQNKKGHCYKIIGNLSGEPPVVRR
notes: N-terminal DGG expected after signal peptide cleavage; glycosylated; also called evasin 3; Evasin-3
B10: CXCL11 (ligand, human, UniProt O14625 22-94, looked up)
chain: FPMFKRGRCLCIGPGVKAVKVADIEKASIMYPSNNCDKIEVIITLKENKGQRCLNPKSKQARLIIKKVERKNF
notes: human CXCL11

Key:
Conditions in all cases: both partners purified
CXCL3 [1] = molecular target: T1, CXCL3 (human, UniProt P19876 35-107); assay: BLI; cross-binding screen on OctetRed; evasin held on a nickel-coated biosensor through its C-terminal His tag; each human chemokine at 300 nM
T1 construct: human CXCL3

CXCL1 [2] = molecular target: T2, CXCL1 (human, UniProt P09341 35-107); assay: as above
T2 construct: human CXCL1

CXCL10 [3] = molecular target: T3, CXCL10 (human, UniProt P02778 22-98); assay: as above
T3 construct: human CXCL10

CXCL11 [4] = molecular target: B10; assay: as above
CXCL2 [5] = molecular target: T4, CXCL2 (human, UniProt P19875 35-107); assay: as above
T4 construct: human CXCL2

CXCL3 [6] = molecular target: T1, CXCL3; assay: as above; remark: listed apart in the source
CXCL1 [7] = molecular target: T2, CXCL1; assay: as above; remark: listed apart in the source
CXCL11 [8] = molecular target: B10; assay: as above; remark: listed apart in the source
CXCL13 = molecular target: B3; assay: as above
CXCL2 [9] = molecular target: T4, CXCL2; assay: as above; remark: listed apart in the source
P1080_IXORI = molecular target: T5, P1080_IXORI (Ixodes ricinus, UniProt A0A090XBL6 20-118); assay: as above
T5 construct: evasin P1080, mature peptide, 99 residues; N-terminal DGG expected after signal peptide cleavage; glycosylated

CXCL10 [10] = molecular target: T3, CXCL10; assay: as above; remark: listed apart in the source
CXCL3 [11] = molecular target: T6, CXCL3 (human, UniProt P19876 35-107); assay: BLI; OctetRed; parental evasins and domain-swap hybrids held by the His tag; titration with chemokine from 600 to 0.4 nM; fit criterion R2 ≥ 0.89, five (in four cases four) concentrations
T6 construct: human CXCL3 of the panel of human chemokines used for biolayer interferometry

CXCL2 [12] = molecular target: T7, CXCL2 (human, UniProt P19875 35-107); assay: as above
T7 construct: human CXCL2 of the panel of human chemokines used for biolayer interferometry

CXCL3 [13] = molecular target: T1, CXCL3; assay: BLI; cross-binding screen on OctetRed; evasin held on a nickel-coated biosensor through its C-terminal His tag; each human chemokine at 300 nM; remark: listed apart in the source
CXCL1 [14] = molecular target: T2, CXCL1; assay: as above; remark: listed apart in the source
CXCL2 [15] = molecular target: T4, CXCL2; assay: as above; remark: listed apart in the source

Measured: binding result

T5 sequence (A0A090XBL6 20-118): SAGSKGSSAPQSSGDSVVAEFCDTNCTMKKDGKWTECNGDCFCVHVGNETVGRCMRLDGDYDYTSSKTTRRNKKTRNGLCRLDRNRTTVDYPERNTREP

B1
binds: CXCL3 [1] | CXCL1 [2] | CXCL10 [3] | CXCL11 [4] | CXCL2 [5]

B2
binds: CXCL3 [6] | CXCL1 [7] | CXCL11 [8] | CXCL13 | CXCL2 [9]

B3
binds: P1080_IXORI

B4
binds: CXCL3 [6] | CXCL1 [7] | CXCL10 [10] | CXCL13 | CXCL2 [9]

B5
binds: CXCL3 [6] | CXCL1 [7] | CXCL10 [10] | CXCL11 [8] | CXCL13 | CXCL2 [9]

B6
binds: CXCL3 [1] | CXCL1 [2] | CXCL10 [3] | CXCL11 [4] | CXCL2 [5]

B7
binds: CXCL3 [6] | CXCL1 [7] | CXCL10 [10] | CXCL11 [8] | CXCL13 | CXCL2 [9]

B8
binds: CXCL3 [11] | CXCL2 [12]

B9
binds: CXCL3 [13] | CXCL1 [14] | CXCL2 [15]

B10
binds: P1080_IXORI

Reference: paper PMC6643034, “A knottin scaffold directs the CXC-chemokine–binding specificity of tick evasins” (The Journal of Biological Chemistry, 2019)
